Columns and labels:
[1] = target: H2A.Z-containing nucleosome (H. sapiens histone octamer, H2B labeled with ATTO643) assembled on lambda-DNA (H. sapiens) (UniProt P0C0S5); assay: single-molecule DNA curtains (TIRF; two-colour co-localization); ATTO643-labeled H2A.Z nucleosomes on sparsely chromatinized double-tethered lambda-DNA, washed with 350 mM NaCl; LD555-INO80 flushed in, flow stopped; DNA curtains buffer with 1 mM ATP
[2] = target: S. cerevisiae wild-type INO80 complex, labeled with LD555 (S. cerevisiae) (UniProt P53115); assay: single-molecule DNA curtains (TIRF; fluorescence intensity and photobleaching steps); LD555-labeled INO80 on double-tethered lambda-DNA; 20 mM HEPES pH 8.0, 1 mg/mL BSA, 4 mM Mg(OAc)2, 1 mM ATP, 1 mM DTT, 120 mM KGlu; 125 to 250 pM INO80 injected

| Substance | co-localization time, second population (short associations) [1] [s] | co-localization time, third population (extremely long-lived co-localizations) [1] [s] | median interaction (co-localization) time [1] [s] | percent of DNA-bound complexes that are dimers [2] [%] | stoichiometry N [2] |
| --- | --- | --- | --- | --- | --- |
| S. cerevisiae wild-type INO80 complex, labeled with LD555 (from UniProt P53115 1-1489; Q03940 1-463; Q12464 1-471; P53946 1-755; P32617 1-166; P60010 1-375; P80428 1-489; Q12386 1-881; P35189 1-244; P40154 1-320; Q08561 1-116; P43579 1-692; Q12345 1-250; P40060 1-125; Q03435 1-203) | 16.6 | 1200 | 15.3 | – | – |
| S. cerevisiae wild-type INO80 complex, labeled with LD555 (from UniProt P53115 1-1489; Q03940 1-463; Q12464 1-471; P53946 1-755; P32617 1-166; P60010 1-375; P80428 1-489; Q12386 1-881; P35189 1-244; P40154 1-320; Q08561 1-116; P43579 1-692; Q12345 1-250; P40060 1-125; Q03435 1-203) (complex; LD555 on the ybbR-tag (Sfp with LD555-CoA); LD555 on the ybbR-tag (Sfp with LD555-CoA)) | – | – | – | 11 | 2 |
